Assay results reported in paper PMC12509985, “Phosphoglycerate dehydrogenase interacts with and inhibits the protein kinase TAK1 to mitigate septic shock” (The Journal of Biological Chemistry, 2025).
Where “and” joins values, the source holds several entries; their conditions need not be identical. Equal entries are not always repeated.

How the values were obtained:
[1] = target: the molecule itself; experiment: cross-linking; lysate of PHGDH-KO PMs transfected with PHGDH or PHGDH (V425M) for 48 h; 0.25 mM cross-linker (DSS in the legend, dimethyl suberimidate in the methods), room temperature 10 min; Western blot
[2] = target: the molecule itself; experiment: cross-linking; lysate of WT PMs (native lysis buffer), untreated or pretreated with 15 μM CBR-5884 for 6 h; 0.25 mM cross-linker (DSS in the legend, dimethyl suberimidate in the methods), room temperature 10 min; Western blot of PHGDH

Protein | stoichiometry N [1] | stoichiometry N [2]
PHGDH-Flag, expressed in PHGDH-KO peritoneal macrophages (enzyme, UniProt Q61753 1-533, looked up, phosphoglycerate dehydrogenase (PHGDH); also called WT PHGDH; PHGDH-HA (methods); source: PHGDH-KO mouse peritoneal macrophages, transfected 48 h, in lysate) MAFANLRKVLISDSLDPCCRKILQDGGLQVVEKQNLSKEELIAELQDCEGLIVRSATKVTADVINAAEKLQVVGRAGTGVDNVDLEAATRKGILVMNTPNGNSLSAAELTCGMIMCLARQIPQATASMKDGKWDRKKFMGTELNGKTLGILGLGRIGREVATRMQSFGMKTVGYDPIISPEVAASFGVQQLPLEEIWPLCDFITVHTPLLPSTTGLLNDSTFAQCKKGVRVVNCARGGIVDEGALLRALQSGQCAGAALDVFTEEPPRDRALVDHENVISCPHLGASTKEAQSRCGEEIAVQFVDMVKGKSLTGVVNAQALTSAFSPHTKPWIGLAEAMGTLMHAWAGSPKGTIQVVTQGTSLKNAGTCLSPAVIVGLLREASKQADVNLVNAKLLVKEAGLNVTTSHNPGVPGEQGSGECLLTVALAGAPYQAVGLVQGTTPMLQMLNGAVFRPEVPLRRGQPLLVFRAQPSDPGMLPTMIGLLAEAGVQLLSYQTSMVSDGEPWHVMGLSSLLPSLETWKQHVLEAFQFCF | 4 | 
PHGDH, endogenous in mouse peritoneal macrophages (enzyme, UniProt Q61753 1-533, looked up, phosphoglycerate dehydrogenase (PHGDH), endogenous in mouse peritoneal macrophages; Seen as tetramers and dimers after cross-linking of the lysate; also called endogenous PHGDH; source: endogenous, mouse peritoneal macrophage (PM) extract) MAFANLRKVLISDSLDPCCRKILQDGGLQVVEKQNLSKEELIAELQDCEGLIVRSATKVTADVINAAEKLQVVGRAGTGVDNVDLEAATRKGILVMNTPNGNSLSAAELTCGMIMCLARQIPQATASMKDGKWDRKKFMGTELNGKTLGILGLGRIGREVATRMQSFGMKTVGYDPIISPEVAASFGVQQLPLEEIWPLCDFITVHTPLLPSTTGLLNDSTFAQCKKGVRVVNCARGGIVDEGALLRALQSGQCAGAALDVFTEEPPRDRALVDHENVISCPHLGASTKEAQSRCGEEIAVQFVDMVKGKSLTGVVNAQALTSAFSPHTKPWIGLAEAMGTLMHAWAGSPKGTIQVVTQGTSLKNAGTCLSPAVIVGLLREASKQADVNLVNAKLLVKEAGLNVTTSHNPGVPGEQGSGECLLTVALAGAPYQAVGLVQGTTPMLQMLNGAVFRPEVPLRRGQPLLVFRAQPSDPGMLPTMIGLLAEAGVQLLSYQTSMVSDGEPWHVMGLSSLLPSLETWKQHVLEAFQFCF |  | 4 and 2
PHGDH (V425M)-Flag, expressed in PHGDH-KO peritoneal macrophages (enzyme, UniProt Q61753 1-533, looked up, phosphoglycerate dehydrogenase (PHGDH) with V425M made by site-directed mutagenesis; also called PHGDH (V425M)-HA (methods); source: PHGDH-KO mouse peritoneal macrophages, transfected 48 h, in lysate) MAFANLRKVLISDSLDPCCRKILQDGGLQVVEKQNLSKEELIAELQDCEGLIVRSATKVTADVINAAEKLQVVGRAGTGVDNVDLEAATRKGILVMNTPNGNSLSAAELTCGMIMCLARQIPQATASMKDGKWDRKKFMGTELNGKTLGILGLGRIGREVATRMQSFGMKTVGYDPIISPEVAASFGVQQLPLEEIWPLCDFITVHTPLLPSTTGLLNDSTFAQCKKGVRVVNCARGGIVDEGALLRALQSGQCAGAALDVFTEEPPRDRALVDHENVISCPHLGASTKEAQSRCGEEIAVQFVDMVKGKSLTGVVNAQALTSAFSPHTKPWIGLAEAMGTLMHAWAGSPKGTIQVVTQGTSLKNAGTCLSPAVIVGLLREASKQADVNLVNAKLLVKEAGLNVTTSHNPGVPGEQGSGECLLTMALAGAPYQAVGLVQGTTPMLQMLNGAVFRPEVPLRRGQPLLVFRAQPSDPGMLPTMIGLLAEAGVQLLSYQTSMVSDGEPWHVMGLSSLLPSLETWKQHVLEAFQFCF | 4 and 2 | 
